Assay [1] deals with Mouse Cdh23 EC1-2 wild-type (mouse) (UniProt Q99PF4). Kind of assay: single-molecule force spectroscopy.
Assay [2] deals with Mouse Cdh23 EC1-2(D101G) (mouse). As to the kind of experiment: single-molecule force spectroscopy.

The results in this text go back to publication PMC6717114.

What is called koff is a measure of how fast the partners let go of each other. A high value points to a short-lived complex.

Mouse Cdh23 EC1-2 wild-type (mouse), sequence (Q99PF4 24-228): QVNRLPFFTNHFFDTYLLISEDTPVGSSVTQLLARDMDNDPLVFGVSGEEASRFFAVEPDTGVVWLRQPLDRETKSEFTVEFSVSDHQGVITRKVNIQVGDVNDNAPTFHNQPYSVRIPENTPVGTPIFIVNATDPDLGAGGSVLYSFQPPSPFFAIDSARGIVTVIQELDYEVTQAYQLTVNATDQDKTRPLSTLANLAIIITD

For the substance “Mouse Pcdh15 EC1-2(D157G) (domain or fragment)”, the koff in assay [1] was 0.044 s⁻¹. As for “Mouse Pcdh15 EC1-2 wild-type (from UniProt Q99PJ1-18 27-259) (domain or fragment)”, the koff in assay [2] turned out to be 0.0097 s⁻¹.
